Results reported in publication PMC6309448 (Nature, 2018).
Blank lines part the entries; values can stand above or below the binder they belong to.

Biological target: T1, outer membrane usher FimD (Escherichia coli, UniProt P30130 46-878)
T1 sequence: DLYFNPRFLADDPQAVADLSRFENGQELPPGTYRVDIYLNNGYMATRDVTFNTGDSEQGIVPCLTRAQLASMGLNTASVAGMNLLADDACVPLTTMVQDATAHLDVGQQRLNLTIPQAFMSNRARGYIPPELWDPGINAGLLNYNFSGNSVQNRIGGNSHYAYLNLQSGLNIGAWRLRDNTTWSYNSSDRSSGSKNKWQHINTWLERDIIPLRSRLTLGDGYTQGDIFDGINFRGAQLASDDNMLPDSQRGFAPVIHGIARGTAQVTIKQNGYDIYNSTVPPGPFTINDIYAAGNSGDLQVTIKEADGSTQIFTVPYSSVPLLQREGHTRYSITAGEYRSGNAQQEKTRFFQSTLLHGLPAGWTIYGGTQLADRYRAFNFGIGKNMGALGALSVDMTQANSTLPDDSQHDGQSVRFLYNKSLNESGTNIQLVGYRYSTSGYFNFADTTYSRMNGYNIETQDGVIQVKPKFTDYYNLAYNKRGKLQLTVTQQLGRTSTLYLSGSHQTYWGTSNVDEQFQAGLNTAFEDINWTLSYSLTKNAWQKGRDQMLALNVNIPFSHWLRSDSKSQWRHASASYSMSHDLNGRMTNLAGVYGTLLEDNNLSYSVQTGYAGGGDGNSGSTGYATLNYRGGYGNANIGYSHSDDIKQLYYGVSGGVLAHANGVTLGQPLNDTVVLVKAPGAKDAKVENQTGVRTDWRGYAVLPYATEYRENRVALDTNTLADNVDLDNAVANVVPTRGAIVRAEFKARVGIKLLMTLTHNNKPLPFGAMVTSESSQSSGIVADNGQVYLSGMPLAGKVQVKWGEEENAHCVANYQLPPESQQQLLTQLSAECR
Assay: cryo-EM structure

- binding result: binds
B1: pilus subunit FimG (natural protein)
chain: ADVTITVNGKVVAKPCTVSTTNATVDLGDLYSFSLMSAGAASAWHDVALELTNCPVGTSRVTASFSGAADSTGYYKNQGTAQNIQLELQDDSGNTLNTGATKTVQVDDSSQSAHFPLQVRALTVNGGATQGTIQAVISITYTYS

- binding result: binds
B2: FimC chaperone (natural protein)
chain: GVALGATRVIYPAGQKQEQLAVTNNDENSTYLIQSWVENADGVKDGRFIVTPPLFAMKGKKENTLRILDATNNQLPQDRESLFWMNVKAIPSMDKSKLTENTLQLAIISRIKLYYRPAKLALPPDQAAEKLRFRRSANSLTLINPTPYYLTVTELNAGTRVLENALVPPMGESTVKLPSDAGSNITYRTINDYGALTPKMTGVME
